Key:
Test in all cases: cell-based or functional assay
[1] = target: SARS-CoV-2 spike (S) protein, variant JN.1 (SARS-CoV-2)
[2] = target: SARS-CoV-2 spike (S) protein, variant BA.2.86 (SARS-CoV-2)
[3] = target: SARS-CoV-2 spike (S) protein, variant CH.1.1 (SARS-CoV-2)
[4] = target: SARS-CoV-2 spike (S) protein, D614G (SARS-CoV-2) (UniProt P0DTC2)
[5] = target: SARS-CoV-2 spike (S) protein, variant KP.2 (SARS-CoV-2)
[6] = target: SARS-CoV-2 spike (S) protein, variant KP.3 (SARS-CoV-2)
[7] = target: SARS-CoV-2 spike (S) protein, variant LB.1 (SARS-CoV-2)
[8] = target: SARS-CoV-2 spike (S) protein, variant KP.3.1.1 (SARS-CoV-2)
[9] = target: SARS-CoV-2 spike (S) protein, variant EG.5.1 (SARS-CoV-2)
[10] = target: SARS-CoV-2 spike (S) protein, variant KP.2.3 (SARS-CoV-2)
[11] = target: SARS-CoV-2 spike (S) protein, variant XEC (SARS-CoV-2)
[12] = target: SARS-CoV-2 spike (S) protein, variant JD.1.1 (SARS-CoV-2)
[13] = target: SARS-CoV-2 spike (S) protein, variant CH.1.1 (SARS-CoV-2) (UniProt P0DTC2)
[14] = target: SARS-CoV-2 spike (S) protein, variant JN.1 (SARS-CoV-2); remark: listed apart in the source
[15] = target: SARS-CoV-2 spike (S) protein, variant B.1.1.7 (SARS-CoV-2)
[16] = target: SARS-CoV-2 spike (S) protein, variant B.1.617.1 (SARS-CoV-2)
[17] = target: SARS-CoV-2 spike (S) protein, variant KP.3 (SARS-CoV-2) (UniProt P0DTC2)
[18] = target: SARS-CoV-2 spike (S) protein, variant B.1.351 (SARS-CoV-2)
[19] = target: SARS-CoV-2 spike (S) protein, variant BA.2.86 (SARS-CoV-2) (UniProt P0DTC2)
[20] = target: SARS-CoV-2 spike (S) protein, variant CH.1.1 (SARS-CoV-2); remark: listed apart in the source
[21] = target: SARS-CoV-2 spike (S) protein, variant XEC (SARS-CoV-2) (UniProt P0DTC2)
[22] = target: SARS-CoV-2 spike protein, variant KP.2 (SARS-CoV-2)
[23] = target: SARS-CoV-2 spike (S) protein, variant XBB.1.16.6 (SARS-CoV-2)
[24] = target: SARS-CoV-2 spike (S) protein, variant KP.2.3 (SARS-CoV-2) (UniProt P0DTC2)
[25] = target: SARS-CoV-2 spike (S) protein, variant EG.5.1 (SARS-CoV-2) (UniProt P0DTC2)
[26] = target: SARS-CoV-2 spike (S) protein, variant P.2 (SARS-CoV-2)
[27] = target: SARS-CoV-2 spike protein, variant KP.3 (SARS-CoV-2)
[28] = target: SARS-CoV-2 spike (S) protein, variant KP.2 (SARS-CoV-2) (UniProt P0DTC2)
[29] = target: SARS-CoV-2 spike (S) protein, variant BA.4/5 (SARS-CoV-2)
[30] = target: SARS-CoV-2 spike (S) protein, variant B.1.621 (SARS-CoV-2)
[31] = target: SARS-CoV-2 spike (S) protein, variant BA.1 (SARS-CoV-2)
[32] = target: SARS-CoV-2 spike (S) protein, variant B.1.526 (SARS-CoV-2)
[33] = target: SARS-CoV-2 spike (S) protein, variant B.1.617.2 (SARS-CoV-2)
[34] = target: SARS-CoV-2 spike (S) protein, variant JN.1 (SARS-CoV-2) (UniProt P0DTC2)
[35] = target: SARS-CoV-2 spike (S) protein, variant EG.5.1 (SARS-CoV-2); remark: listed apart in the source
[36] = target: SARS-CoV-2 spike (S) protein, variant KP.3.1.1 (SARS-CoV-2) (UniProt P0DTC2)
[37] = target: SARS-CoV-2 spike (S) protein, variant XBB (SARS-CoV-2)
[38] = target: SARS-CoV-2 spike (S) protein, variant XBB.1.5 (SARS-CoV-2)

Substance: AZD3152 (antibody)
- neutralization IC50 [1]: 0.766 mg/L
- neutralization IC50 [2]: 0.053 mg/L
- neutralization IC50 [3]: 0.045 mg/L
- neutralization IC50 [4]: 0.015 mg/L
- neutralization IC50 [5]: > 10 mg/L
- neutralization IC50 [6]: > 10 mg/L
- neutralization IC50 [7]: > 10 mg/L
- neutralization IC50 [8]: > 10 mg/L
- neutralization IC50 [9]: > 10 mg/L
- neutralization IC50 [10]: > 10 mg/L
- neutralization IC50 [11]: > 10 mg/L
- IC50, pseudovirus neutralization [12]: > 67 nM
- IC80, pseudovirus neutralization [12]: > 67 nM
- neutralizing activity IC80 (µg/ml (caption; values match nM)) [13]: 1.59
- pseudotyped neutralization potency IC50 [13]: 0.501 nM
- pseudotyped neutralization potency IC80 [13]: 1.47 nM
- IC50, pseudovirus neutralization [14]: 5.11 nM
- IC80, pseudovirus neutralization [14]: 28 nM
- IC50, pseudovirus neutralization [15]: 0.622 nM
- IC80, pseudovirus neutralization [15]: 1.54 nM
- IC50, pseudovirus neutralization [16]: 0.271 nM
- IC80, pseudovirus neutralization [16]: 0.687 nM
- neutralizing activity IC50 (µg/ml (caption; values match nM)) [17]: > 67
- neutralizing activity IC80 (µg/ml (caption; values match nM)) [17]: > 67
- IC50, pseudovirus neutralization [18]: 0.163 nM
- IC80, pseudovirus neutralization [18]: 0.459 nM
- neutralizing activity IC80 (µg/ml (caption; values match nM)) [19]: 2.23
- IC50, pseudovirus neutralization [20]: 0.301 nM
- IC80, pseudovirus neutralization [20]: 1.59 nM
- neutralizing activity IC50 (µg/ml (caption; values match nM)) [21]: > 67
- neutralizing activity IC80 (µg/ml (caption; values match nM)) [21]: > 67
- IC50 (nM), pseudovirus neutralization [22]: > 67 nM
- IC50, pseudovirus neutralization [23]: > 67 nM
- IC80, pseudovirus neutralization [23]: > 67 nM
- neutralizing activity IC50 (µg/ml (caption; values match nM)) [24]: > 67
- neutralizing activity IC80 (µg/ml (caption; values match nM)) [24]: > 67
- neutralizing activity IC50 (µg/ml (caption; values match nM)) [25]: > 67
- neutralizing activity IC80 (µg/ml (caption; values match nM)) [25]: > 67
- IC50, pseudovirus neutralization [26]: 0.135 nM
- IC80, pseudovirus neutralization [26]: 0.359 nM
- IC50 (nM), pseudovirus neutralization [27]: > 67 nM
- neutralizing activity IC50 (µg/ml (caption; values match nM)) [28]: > 67
- neutralizing activity IC80 (µg/ml (caption; values match nM)) [28]: > 67
- IC50, pseudovirus neutralization [29]: 0.198 nM
- IC80, pseudovirus neutralization [29]: 0.656 nM
- IC50, pseudovirus neutralization [30]: 0.265 nM
- IC80, pseudovirus neutralization [30]: 0.625 nM
- IC50, pseudovirus neutralization [31]: 0.0779 nM
- IC80, pseudovirus neutralization [31]: 0.446 nM
- IC50, pseudovirus neutralization [32]: 0.329 nM
- IC80, pseudovirus neutralization [32]: 1.04 nM
- IC50, pseudovirus neutralization [33]: 0.602 nM
- IC80, pseudovirus neutralization [33]: 2.2 nM
- neutralizing activity IC50 (µg/ml (caption; values match nM)) [34]: 5.11
- neutralizing activity IC80 (µg/ml (caption; values match nM)) [34]: 28
- IC50, pseudovirus neutralization [35]: > 67 nM
- IC80, pseudovirus neutralization [35]: > 67 nM
- neutralizing activity IC50 (µg/ml (caption; values match nM)) [36]: > 67
- neutralizing activity IC80 (µg/ml (caption; values match nM)) [36]: > 67
- IC50, pseudovirus neutralization [37]: 0.0748 nM
- IC80, pseudovirus neutralization [37]: 0.349 nM
- IC50, pseudovirus neutralization [38]: 0.109 nM
- IC80, pseudovirus neutralization [38]: 0.355 nM

Substance: ADG20 (antibody)
- neutralization IC50 [1]: > 10 mg/L
- neutralization IC50 [2]: > 10 mg/L
- neutralization IC50 [3]: 2.06 mg/L
- neutralization IC50 [4]: 0.003 mg/L
- neutralization IC50 [5]: > 10 mg/L
- neutralization IC50 [6]: > 10 mg/L
- neutralization IC50 [7]: > 10 mg/L
- neutralization IC50 [8]: > 10 mg/L
- neutralization IC50 [9]: > 10 mg/L
- neutralization IC50 [10]: > 10 mg/L
- neutralization IC50 [11]: > 10 mg/L
- pseudovirus neutralization IC50 [12]: > 67 nM
- pseudovirus neutralization IC80 [12]: > 67 nM
- neutralizing activity IC50 (µg/ml (caption; values match nM)) [13]: 13.7
- neutralizing activity IC80 (µg/ml (caption; values match nM)) [13]: > 67
- pseudovirus neutralization IC50 [14]: > 67 nM
- pseudovirus neutralization IC80 [14]: > 67 nM
- neutralization IC50 [15]: 0.106 nM
- neutralization IC80 [15]: 0.424 nM
- neutralization IC50 [16]: 0.015 nM
- neutralization IC80 [16]: 0.071 nM
- neutralizing activity IC50 (µg/ml (caption; values match nM)) [17]: > 67
- neutralizing activity IC80 (µg/ml (caption; values match nM)) [17]: > 67
- neutralization IC50 [18]: 0.011 nM
- neutralization IC80 [18]: 0.05 nM
- neutralizing activity IC50 (µg/ml (caption; values match nM)) [19]: > 67
- neutralizing activity IC80 (µg/ml (caption; values match nM)) [19]: > 67
- neutralizing activity IC50 [20]: 13.7 nM
- neutralizing activity IC80 [20]: > 67 nM
- neutralizing activity IC50 (µg/ml (caption; values match nM)) [21]: > 67
- neutralizing activity IC80 (µg/ml (caption; values match nM)) [21]: > 67
- IC50 (nM), pseudovirus neutralization [22]: > 67 nM
- neutralizing activity IC50 [23]: > 67 nM
- neutralizing activity IC80 [23]: > 67 nM
- neutralizing activity IC50 (µg/ml (caption; values match nM)) [24]: > 67
- neutralizing activity IC80 (µg/ml (caption; values match nM)) [24]: > 67
- neutralizing activity IC50 (µg/ml (caption; values match nM)) [25]: > 67
- neutralizing activity IC80 (µg/ml (caption; values match nM)) [25]: > 67
- neutralization IC50 [26]: 0.034 nM
- neutralization IC80 [26]: 0.121 nM
- IC50 (nM), pseudovirus neutralization [27]: > 67 nM
- neutralizing activity IC50 (µg/ml (caption; values match nM)) [28]: > 67
- neutralizing activity IC80 (µg/ml (caption; values match nM)) [28]: > 67
- neutralizing activity IC50 [29]: > 67 nM
- neutralizing activity IC80 [29]: > 67 nM
- neutralizing activity IC50 [30]: 0.026 nM
- neutralizing activity IC80 [30]: 0.131 nM
- neutralizing activity IC50 [31]: 13.9 nM
- neutralizing activity IC80 [31]: > 67 nM
- neutralizing activity IC50 [32]: 0.019 nM
- neutralizing activity IC80 [32]: 0.081 nM
- neutralizing activity IC50 [33]: 0.11 nM
- neutralizing activity IC80 [33]: 0.118 nM
- neutralizing activity IC50 (µg/ml (caption; values match nM)) [34]: > 67
- neutralizing activity IC80 (µg/ml (caption; values match nM)) [34]: > 67
- pseudovirus neutralization IC50 [35]: > 67 nM
- pseudovirus neutralization IC80 [35]: > 67 nM
- neutralizing activity IC50 (µg/ml (caption; values match nM)) [36]: > 67
- neutralizing activity IC80 (µg/ml (caption; values match nM)) [36]: > 67
- neutralizing activity IC50 [37]: 10.6 nM
- neutralizing activity IC80 [37]: > 67 nM
- neutralizing activity IC50 [38]: > 67 nM
- neutralizing activity IC80 [38]: > 67 nM

Source: patent US20250326823A1
